Test results published in PMC6265484, “Homodimerization regulates an endothelial specific signature of the SOX18 transcription factor”.

Assays:
SOX18 full length [1] = biological target: T1, SOX18 full length (mouse, UniProt P43680 1-377); assay: fluorescence polarization; 2 mM Mg2+; maximum binding (highest mP); FP: 30 mM HEPES pH 7.5, 100 mM KCl, 40 mM NaCl, 10 mM ammonium acetate, 10 mM guanidinium HCl, 2 mM MgCl2, 0.5 mM EDTA, 0.01% NP-40, room temp, 5 nM DNA, 5-150; conditions: protein: recombinant; tags: N-terminal HIS-GST; chain copies: 2; label: 5'-fluorescein; blunt
T1 sequence (P43680 whole entry): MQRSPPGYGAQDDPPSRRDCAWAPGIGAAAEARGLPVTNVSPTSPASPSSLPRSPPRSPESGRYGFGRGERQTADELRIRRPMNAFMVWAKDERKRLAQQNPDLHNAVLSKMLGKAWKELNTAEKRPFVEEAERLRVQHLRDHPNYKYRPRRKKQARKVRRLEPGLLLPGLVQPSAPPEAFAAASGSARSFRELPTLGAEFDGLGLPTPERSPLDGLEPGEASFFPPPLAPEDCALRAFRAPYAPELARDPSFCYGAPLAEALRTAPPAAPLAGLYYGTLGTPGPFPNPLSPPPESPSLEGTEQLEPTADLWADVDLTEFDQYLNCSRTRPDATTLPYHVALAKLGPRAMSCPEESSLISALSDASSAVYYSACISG

SOX9-HMG = SOX9-HMG (UniProt Q04887 105-173); assay: EMSA; 50 uM Zn2+; two HMG bind; FP: 30 mM HEPES pH 7.5, 100 mM KCl, 40 mM NaCl, 10 mM ammonium acetate, 10 mM guanidinium HCl, 2 mM MgCl2, 0.5 mM EDTA, 0.01% NP-40, room temp, 5 nM DNA, 5-150; conditions: protein: recombinant; chain copies: 2; label: 5'-Cy5; blunt
SOX9-HMG, sequence (Q04887 105-173): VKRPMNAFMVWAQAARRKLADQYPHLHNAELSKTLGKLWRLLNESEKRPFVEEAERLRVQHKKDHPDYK

SOX18-HMG (Sox18_79) = SOX18-HMG (Sox18_79) (mouse, UniProt P43680 77-155); assay: EMSA; 15 nM protein, 1 nM DNA, 50 uM Zn2+; two HMG bind; FP: 30 mM HEPES pH 7.5, 100 mM KCl, 40 mM NaCl, 10 mM ammonium acetate, 10 mM guanidinium HCl, 2 mM MgCl2, 0.5 mM EDTA, 0.01% NP-40, room temp, 5 nM DNA, 5-150; conditions: protein: recombinant; tags: pETG20A or pHisMBP vector; chain copies: 2; label: 5'-Cy5; blunt
SOX18-HMG (Sox18_79), sequence (P43680 77-155): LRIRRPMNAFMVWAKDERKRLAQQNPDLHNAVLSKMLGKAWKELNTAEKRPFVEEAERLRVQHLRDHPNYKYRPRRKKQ

SOX18 full length [2] = biological target: T1, SOX18 full length; assay: fluorescence polarization; 2 mM Mg2+; FP: 30 mM HEPES pH 7.5, 100 mM KCl, 40 mM NaCl, 10 mM ammonium acetate, 10 mM guanidinium HCl, 2 mM MgCl2, 0.5 mM EDTA, 0.01% NP-40, room temp, 5 nM DNA, 5-150; conditions: protein: recombinant; tags: N-terminal HIS-GST; chain copies: 2; label: 5'-fluorescein; blunt

B1: IR5 (FP) (dsDNA)
DNA 1: CGCCAGTAGGAACAATGCGGCATTGTTTTCCGGGGGC
DNA 2: GCCCCCGGAAAACAATGCCGCATTGTTCCTACTGGCG
**Q.** Does B1 bind (SOX18 full length [1])?
**A.** binds

B2: IR5 (EMSA) (dsDNA)
DNA 1: CGCCAGTAGGAACAATGCGGCATTGTTTTCCGGGGGC
DNA 2: GCCCCCGGAAAACAATGCCGCATTGTTCCTACTGGCG
**Q.** Does B2 bind (SOX9-HMG)?
**A.** binds

**Q.** Does B2 bind (SOX18-HMG (Sox18_79))?
**A.** binds

B3: IR1 (FP) (dsDNA)
DNA 1: CGCCAGTAGGGCAACAATGATTGTTGCTTCCGGGGGC
DNA 2: GCCCCCGGAAGCAACAATCATTGTTGCCCTACTGGCG
**Q.** How did the binding signal (SOX18 full length [2]) turn out when B3 was run?
**A.** ~0.5 occupancy relative to IR5
